Experiment [1] addresses Pyruvate kinase M2 (PKM2), endogenous in U251-iUS28 cells (human (endogenous in U251)) (UniProt P14618). As to the kind of experiment: cross-linking.
Experiment [2] has as its target Pyruvate kinase M2 (PKM2), endogenous in NIH-3T3 cells (mouse (endogenous in NIH-3T3)) (UniProt P52480). As to the kind of experiment: cross-linking.

Sequence of Pyruvate kinase M2 (PKM2), endogenous in U251-iUS28 cells, P14618 1-531 (enzyme; other documents disagree on this pair) (P14618 whole entry): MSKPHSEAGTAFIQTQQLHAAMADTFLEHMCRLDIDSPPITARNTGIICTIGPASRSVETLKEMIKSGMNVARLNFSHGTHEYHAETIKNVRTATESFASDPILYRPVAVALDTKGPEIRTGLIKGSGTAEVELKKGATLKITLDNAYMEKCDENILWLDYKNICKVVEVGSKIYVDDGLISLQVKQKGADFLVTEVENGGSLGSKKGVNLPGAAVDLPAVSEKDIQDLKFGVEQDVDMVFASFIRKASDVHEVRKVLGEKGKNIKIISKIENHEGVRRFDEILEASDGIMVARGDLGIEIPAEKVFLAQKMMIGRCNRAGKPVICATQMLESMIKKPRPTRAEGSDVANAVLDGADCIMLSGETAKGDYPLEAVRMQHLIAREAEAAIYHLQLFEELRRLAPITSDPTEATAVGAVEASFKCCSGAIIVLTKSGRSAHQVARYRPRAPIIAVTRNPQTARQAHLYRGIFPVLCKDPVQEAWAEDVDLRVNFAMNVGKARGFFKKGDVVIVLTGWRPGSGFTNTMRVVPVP
Sequence of Pyruvate kinase M2 (PKM2), endogenous in NIH-3T3 cells, P52480 1-531 (enzyme; other documents disagree on this pair) (P52480 whole entry): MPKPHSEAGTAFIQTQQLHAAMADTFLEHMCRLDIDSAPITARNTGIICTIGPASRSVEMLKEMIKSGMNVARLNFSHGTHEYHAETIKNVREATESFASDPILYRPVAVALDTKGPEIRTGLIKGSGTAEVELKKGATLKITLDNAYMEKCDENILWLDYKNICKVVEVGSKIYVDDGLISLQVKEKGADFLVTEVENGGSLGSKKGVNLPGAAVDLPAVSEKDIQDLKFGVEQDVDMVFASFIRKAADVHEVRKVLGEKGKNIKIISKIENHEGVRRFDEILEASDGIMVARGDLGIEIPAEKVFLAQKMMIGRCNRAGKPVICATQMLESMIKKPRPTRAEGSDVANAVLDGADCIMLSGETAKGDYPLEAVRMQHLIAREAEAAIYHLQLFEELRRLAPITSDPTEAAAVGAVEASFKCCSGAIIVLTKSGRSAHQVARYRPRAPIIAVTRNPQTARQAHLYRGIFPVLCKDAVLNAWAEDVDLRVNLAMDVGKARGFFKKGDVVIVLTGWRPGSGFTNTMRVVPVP

As for “Pyruvate kinase M2 (PKM2), endogenous in U251-iUS28 cells, P14618 1-531 (enzyme; other documents disagree on this pair)”, in experiment [1], the stoichiometry N came out at 2.

In the case of “Pyruvate kinase M2 (PKM2), endogenous in NIH-3T3 cells, P52480 1-531 (enzyme; other documents disagree on this pair)”, the stoichiometry N in experiment [2] was 2.

The stoichiometry N is a count of units in the complex or per binding partner.

The values are drawn from publication PMC5356532.
